Data reported in paper PMC9265717.

Molecular target: toll-like receptor 5 (TLR5) (human (endogenous in MDA-MB-468 and MDA-MB-231)) (UniProt O60602)
UniProt O60602, sequence (O60602 21-858): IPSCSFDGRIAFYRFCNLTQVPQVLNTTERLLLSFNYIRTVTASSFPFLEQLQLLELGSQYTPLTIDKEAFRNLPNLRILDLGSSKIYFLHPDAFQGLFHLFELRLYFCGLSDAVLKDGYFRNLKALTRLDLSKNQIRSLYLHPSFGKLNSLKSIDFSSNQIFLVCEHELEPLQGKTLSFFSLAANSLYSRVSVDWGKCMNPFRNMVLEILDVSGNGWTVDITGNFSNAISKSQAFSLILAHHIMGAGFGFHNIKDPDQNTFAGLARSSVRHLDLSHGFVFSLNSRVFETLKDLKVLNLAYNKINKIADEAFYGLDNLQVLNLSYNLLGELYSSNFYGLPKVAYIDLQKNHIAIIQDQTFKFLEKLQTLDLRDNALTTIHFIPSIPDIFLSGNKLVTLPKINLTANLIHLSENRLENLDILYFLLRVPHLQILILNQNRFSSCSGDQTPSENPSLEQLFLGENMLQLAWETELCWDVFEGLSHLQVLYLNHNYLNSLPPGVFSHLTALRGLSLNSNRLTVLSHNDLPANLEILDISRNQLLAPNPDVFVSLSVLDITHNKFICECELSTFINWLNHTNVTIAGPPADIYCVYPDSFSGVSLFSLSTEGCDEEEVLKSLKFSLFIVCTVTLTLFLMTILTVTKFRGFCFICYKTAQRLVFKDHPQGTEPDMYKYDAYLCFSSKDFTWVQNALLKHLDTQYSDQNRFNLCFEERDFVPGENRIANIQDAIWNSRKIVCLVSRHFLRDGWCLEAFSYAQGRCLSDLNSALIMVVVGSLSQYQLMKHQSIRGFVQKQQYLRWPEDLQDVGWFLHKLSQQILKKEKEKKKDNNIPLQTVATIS

- percent of IL-8 release (ELISA) by MDA-MB-231 cells in response to FnEDA (5 µM) that is inhibited by a blocking antibody to TLR5: 30%
Substance: fibronectin EDA (FnEDA) domain (domain or fragment)
